Results taken from doi:10.1101/2020.02.11.943977.

Target: Replication protein A (RPA heterotrimer) (human) (UniProt P27694+P15927+P35244)
Experiment: competition

Replication protein A (RPA heterotrimer) (human), sequence (P27694 whole entry, chain 1 of 3): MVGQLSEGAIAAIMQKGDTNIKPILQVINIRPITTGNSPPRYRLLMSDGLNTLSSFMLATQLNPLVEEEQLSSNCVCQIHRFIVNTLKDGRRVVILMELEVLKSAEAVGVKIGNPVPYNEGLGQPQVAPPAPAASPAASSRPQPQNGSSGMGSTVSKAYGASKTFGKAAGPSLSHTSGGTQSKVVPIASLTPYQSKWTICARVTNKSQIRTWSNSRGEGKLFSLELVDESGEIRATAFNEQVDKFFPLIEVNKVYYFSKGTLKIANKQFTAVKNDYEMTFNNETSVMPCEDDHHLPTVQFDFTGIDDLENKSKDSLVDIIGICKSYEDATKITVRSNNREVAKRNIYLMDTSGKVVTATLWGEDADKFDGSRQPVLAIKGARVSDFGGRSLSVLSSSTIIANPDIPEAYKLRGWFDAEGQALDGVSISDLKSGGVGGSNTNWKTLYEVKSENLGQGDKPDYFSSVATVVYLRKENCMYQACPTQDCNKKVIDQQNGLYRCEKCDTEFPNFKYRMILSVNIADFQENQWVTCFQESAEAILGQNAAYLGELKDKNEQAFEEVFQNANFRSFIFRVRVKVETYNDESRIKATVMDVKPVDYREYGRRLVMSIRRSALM
Replication protein A (RPA heterotrimer) (human), sequence (P15927 whole entry, chain 2 of 3): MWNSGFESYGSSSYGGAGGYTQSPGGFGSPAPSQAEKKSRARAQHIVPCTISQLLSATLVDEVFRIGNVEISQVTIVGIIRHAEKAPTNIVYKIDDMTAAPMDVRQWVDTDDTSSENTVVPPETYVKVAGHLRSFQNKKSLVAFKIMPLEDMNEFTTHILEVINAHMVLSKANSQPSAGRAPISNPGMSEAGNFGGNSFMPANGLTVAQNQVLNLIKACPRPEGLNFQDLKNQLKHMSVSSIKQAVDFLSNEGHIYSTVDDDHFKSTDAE
Replication protein A (RPA heterotrimer) (human), sequence (P35244 whole entry, chain 3 of 3): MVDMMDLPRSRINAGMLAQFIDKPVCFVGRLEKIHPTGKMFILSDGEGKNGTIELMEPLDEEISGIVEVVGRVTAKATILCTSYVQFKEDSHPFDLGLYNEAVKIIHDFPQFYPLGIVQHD

## pHSG299 supercoiled plasmid
scale: fold lower affinity than RNA 501
  binding signal: 500
scale: fold lower affinity than ssDNA 211
  binding signal: 33000
